Legend:
Assay in all cases: FP competition (Ki)
IRS1 = target: T1, IRS1 (Homo sapiens (Human), UniProt P35568)
T1 chain: RLARPTRLSL

GAB3b = target: T2, GAB3b (Homo sapiens (Human), UniProt Q8WWW8)
T2 chain: KPQRKSRPPPLDLRNLS

PDE4B = target: T3, PDE4B (Homo sapiens (Human), UniProt Q07343)
T3 chain: EGDGISRPTTLPLTTLPS

JAZF1 = target: T4, JAZF1 (Homo sapiens (Human), UniProt Q86VZ6)
T4 chain: SLKKKIQPKLSLTLS

AAKG2 = target: T5, AAKG2 (Homo sapiens (Human), UniProt Q9UGJ0)
T5 chain: SQKRRSLRVHIP

KSR2 = target: T6, KSR2 (Homo sapiens (Human), UniProt Q6VAB6)
T6 chain: KKKSKPLNLKI

MYO9B = target: T7, MYO9B (Homo sapiens (Human), UniProt Q13459)
T7 chain: LERPTSLALD

DCX = target: T8, DCX (Mus musculus (Mouse), UniProt O88809)
T8 chain: SLRKHKVDLYLPLSL

RHDF1 = target: T9, RHDF1 (Homo sapiens (Human), UniProt Q96CC6)
T9 chain: SLQRKKPPWLKLDIPS

CCNT2 = target: T10, CCNT2 (Homo sapiens (Human), UniProt O60583)
T10 chain: KKEKSGSLKLRIPIP

DOCK5 = target: T11, DOCK5 (Homo sapiens (Human), UniProt Q9H7D0)
T11 chain: KAQRPKSLQLM

DOCK7 = target: T12, DOCK7 (Homo sapiens (Human), UniProt Q96N67)
T12 chain: RSAVRPASLNLNRSR

APBA2 = target: T13, APBA2 (Homo sapiens (Human), UniProt Q99767)
T13 chain: RHEARPKSLNLL

B1: JNK1 (protein)
chain: DNNFYSVEIGDSTFTVLKRYQNLKPIGSGAQGIVCAAYDAILERNVAIKKLSRPFQNQTHAKRAYRELVLMKCVNHKNIIGLLNVFTPQKSLEEFQDVYIVMELMDANLCQVIQMELDHERMSYLLYQMLCGIKHLHSAGIIHRDLKPSNIVVKSDCTLKILDFGLARTAGTSFMMTPYVVTRYYRAPEVILGMGYKENVDLWSVGCIMGEMVCHKILFPGRDYIDQWNKVIEQLGTPCPEFMKKLQPTVRTYVENRPKYAGYSFEKLFPDVLFPADSEHNKLKASQARDLLSKMLVIDASKRISVDEALQHPYINVWYDPSEAEAPPPKIPDKQLDEREHTIEEWKELIYKEVMDLE
For B1, the Kd (IRS1) was 3.5 µM, the Kd (GAB3b) was 13.2 µM and the Kd (PDE4B) was 16.4 µM. The Kd (JAZF1) was greater than 100 µM, the Kd (AAKG2) was greater than 100 µM and the Kd (KSR2) was 24.7 µM. For the same binder, the Kd (MYO9B) was 15.9 µM, the Kd (DCX) was 16.7 µM and the Kd (RHDF1) was greater than 100 µM. For the same binder, the Kd (CCNT2) was greater than 100 µM, the Kd (DOCK5) was 5.1 µM and the Kd (DOCK7) was 7.3 µM. The Kd (APBA2) was 10.8 µM.
